The values that follow come from patent USRE42211, “Relating to binding proteins for recognition of DNA” (Gendaq, Limited).

The target in the data set is anti-BCR-ABL three-finger peptide 1A-2A-3B (synthetic). The data set is described as follows: phage ELISA after capture on streptavidin beads; +/-0.4e-7 M; Zn, PBS, 20 C. Particulars: source form inferred; label: 5'-biotin.
Sequence of anti-BCR-ABL three-finger peptide 1A-2A-3B (synthetic) (chain, as listed by the source): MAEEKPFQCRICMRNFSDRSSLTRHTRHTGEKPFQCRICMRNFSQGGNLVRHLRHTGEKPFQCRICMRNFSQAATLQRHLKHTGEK

B1: p190 BCR-ABL cDNA fusion site oligo (dsDNA)
DNA 1: GAGACGCAGAAGCCCTTC
DNA 2: GAAGGGCTTCTGCGTCTC
Take B1: the Kd worked out at 620 nM.
